Data on two molecules can be found in patent publication US20140314774A1 (UAB RESEARCH FOUNDATION, published 2014).

Test [1] addresses T1, HER3 on HER3-transfected SP 2/0 cells (human, UniProt P21860 20-1342).
T1 construct: whole, on cells; The flow cytometry text says only 'HER3 transfected SP2/0 cells'; also called human HER3 expressing SP 2/0 cells
In words: flow cytometry, HER3-transfected SP2/0 cells stained with 1 µg/ml antibody, PE-goat anti-mouse IgG. The method, then:
The average OD values of triplicates are presented. […] EGFR, HER2 or HER3-transfected SP 2/0 cells were stained with 1 μg/ml of purified antibody, followed by PE-goat anti-mouse IgG.
An ELISA plate was coated with 1 μg/ml of recombinant soluble EGFR, HER2, or the extracellular domain of HER3.
For orientation: A flow cytometer gives signals particle by particle.

The target in test [2] is T2, recombinant soluble HER3 (extracellular domain) (UniProt P21860 20-643, limits assumed).
T2 construct: extracellular domain; also called ERBB3
T2 sequence (P21860 20-643 limits assumed): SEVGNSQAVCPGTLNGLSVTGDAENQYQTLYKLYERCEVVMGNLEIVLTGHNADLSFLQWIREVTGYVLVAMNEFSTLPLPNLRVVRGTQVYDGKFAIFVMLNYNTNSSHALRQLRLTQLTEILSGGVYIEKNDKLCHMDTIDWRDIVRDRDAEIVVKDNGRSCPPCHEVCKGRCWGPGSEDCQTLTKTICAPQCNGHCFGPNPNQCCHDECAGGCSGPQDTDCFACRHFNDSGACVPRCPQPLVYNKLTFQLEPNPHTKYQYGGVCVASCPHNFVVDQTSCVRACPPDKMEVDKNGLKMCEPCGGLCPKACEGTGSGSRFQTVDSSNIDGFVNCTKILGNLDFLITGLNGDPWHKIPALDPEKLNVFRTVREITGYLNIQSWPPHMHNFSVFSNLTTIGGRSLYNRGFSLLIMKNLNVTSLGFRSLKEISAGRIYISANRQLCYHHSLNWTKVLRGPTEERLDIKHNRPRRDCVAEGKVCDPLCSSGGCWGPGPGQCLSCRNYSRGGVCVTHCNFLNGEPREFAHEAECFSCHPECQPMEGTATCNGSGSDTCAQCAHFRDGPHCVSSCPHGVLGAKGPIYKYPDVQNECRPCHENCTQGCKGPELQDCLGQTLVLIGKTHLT
In words: NRG1 competition ELISA on coated recombinant soluble HER3.

T1 sequence (P21860 20-1342): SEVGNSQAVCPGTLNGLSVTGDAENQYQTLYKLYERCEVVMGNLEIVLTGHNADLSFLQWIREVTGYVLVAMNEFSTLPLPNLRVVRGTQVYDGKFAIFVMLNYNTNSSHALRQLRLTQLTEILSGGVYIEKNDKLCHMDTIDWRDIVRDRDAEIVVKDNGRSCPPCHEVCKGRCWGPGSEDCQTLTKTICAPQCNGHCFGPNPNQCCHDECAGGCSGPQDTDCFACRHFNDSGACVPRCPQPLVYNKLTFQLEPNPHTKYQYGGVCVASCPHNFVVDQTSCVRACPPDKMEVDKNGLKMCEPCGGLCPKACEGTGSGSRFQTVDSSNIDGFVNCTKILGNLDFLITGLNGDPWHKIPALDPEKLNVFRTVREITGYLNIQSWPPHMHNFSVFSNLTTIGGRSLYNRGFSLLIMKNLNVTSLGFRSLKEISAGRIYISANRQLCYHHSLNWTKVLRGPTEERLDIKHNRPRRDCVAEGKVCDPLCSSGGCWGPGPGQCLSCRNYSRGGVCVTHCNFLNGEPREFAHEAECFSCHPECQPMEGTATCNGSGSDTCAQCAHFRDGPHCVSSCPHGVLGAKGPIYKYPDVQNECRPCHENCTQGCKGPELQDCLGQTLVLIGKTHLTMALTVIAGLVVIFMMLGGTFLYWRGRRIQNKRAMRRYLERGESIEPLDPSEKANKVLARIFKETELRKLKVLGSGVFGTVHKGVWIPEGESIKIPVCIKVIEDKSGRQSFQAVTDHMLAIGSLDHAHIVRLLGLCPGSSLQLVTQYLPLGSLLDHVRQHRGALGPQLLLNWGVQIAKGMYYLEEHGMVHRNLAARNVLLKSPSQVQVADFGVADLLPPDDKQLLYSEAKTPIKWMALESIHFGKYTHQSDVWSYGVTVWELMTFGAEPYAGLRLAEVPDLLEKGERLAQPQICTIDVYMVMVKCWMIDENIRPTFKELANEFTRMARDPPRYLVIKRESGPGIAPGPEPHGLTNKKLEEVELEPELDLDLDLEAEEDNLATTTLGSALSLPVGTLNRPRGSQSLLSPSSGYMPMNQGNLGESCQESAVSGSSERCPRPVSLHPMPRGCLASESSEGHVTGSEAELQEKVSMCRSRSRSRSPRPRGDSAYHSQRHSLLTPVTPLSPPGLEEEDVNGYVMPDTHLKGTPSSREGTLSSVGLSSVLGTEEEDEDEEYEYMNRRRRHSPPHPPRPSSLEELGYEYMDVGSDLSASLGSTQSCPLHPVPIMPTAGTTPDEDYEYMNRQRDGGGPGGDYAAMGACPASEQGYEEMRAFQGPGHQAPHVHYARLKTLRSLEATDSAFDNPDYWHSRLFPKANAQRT

B1: 1A5 antibody (antibody, V domains shown)
VH: QVQLQQSGAELARPGASVKLSCKASGYTFTDNYINWMKQRPGQGLEWIGEIYPGSGNTYYNEKFKGKATLTADKSSSTAYMQLSSLTSEESAVYFCARSPNLRLYYFDYWGQGTTLTVSS
VL: DIVMTQSPATLSVTPGDRVSLSCRASQSINDYLYWYQQKLHESPRLLIKFASHSISGIPSRFSGSGSGSDFTLSINSVEPEDVGVYYCQNGHSFPLTFGAGTKLELK
notes: Hybridoma monoclonal antibody detected with goat anti-mouse IgG; also called ligand-independent HER3 antibody
Regarding B1, the binding result in test [1] and in test [2] was “binds” throughout.

B2: 3D4 antibody (antibody, V domains shown)
VH: QVQLQQSGPELVKPGASVRISCKASGYTFTNYFLHWMKQRPGQGLEWIGWIYPGNVNTKYSEKFKGKATLTADKSSSTAYMQLSSLTSEDSAVYFCARSTYYSMDYWGQGTSVTVSS
VL: DIVLTQSPASLAVSLGQRATISCRASESVDSYGNSFMNWYQQKPGQPPKVLIYRASNLESGIPARFSGSGSRTDFTLTITPVEADDVATYYCQQSYEDPPTFGGGTKLEIK
notes: Mouse monoclonal antibody raised against human HER3 expressing SP 2/0 cells; also called ligand-dependent HER3 antibody
In the case of B2, the binding result in test [1] and in test [2] was “binds” in each case.
